Measurements as given in patent US20210063414A1, “METHODS FOR PREVENTING AND/OR TREATING BONE LOSS CONDITIONS BY MODULATING IRISIN” (Dana-Farber Cancer Institute, Inc., priority 2018, published 2021).

What was measured:
[1] = target: T1, MLO-Y4 cell surface proteins (Mus musculus, UniProt E9Q9D8); assay: Crosslinking/co-immunoprecipitation/mass spectrometry (TMT quantitative proteomics) to identify irisin receptors; type: binding; settings: co-precipitated protein Ankrd35 (E9Q9D8_MOUSE)
T1 construct: endogenous in cells; host or cells: MLO-Y4
T1 sequence (E9Q9D8 1-996): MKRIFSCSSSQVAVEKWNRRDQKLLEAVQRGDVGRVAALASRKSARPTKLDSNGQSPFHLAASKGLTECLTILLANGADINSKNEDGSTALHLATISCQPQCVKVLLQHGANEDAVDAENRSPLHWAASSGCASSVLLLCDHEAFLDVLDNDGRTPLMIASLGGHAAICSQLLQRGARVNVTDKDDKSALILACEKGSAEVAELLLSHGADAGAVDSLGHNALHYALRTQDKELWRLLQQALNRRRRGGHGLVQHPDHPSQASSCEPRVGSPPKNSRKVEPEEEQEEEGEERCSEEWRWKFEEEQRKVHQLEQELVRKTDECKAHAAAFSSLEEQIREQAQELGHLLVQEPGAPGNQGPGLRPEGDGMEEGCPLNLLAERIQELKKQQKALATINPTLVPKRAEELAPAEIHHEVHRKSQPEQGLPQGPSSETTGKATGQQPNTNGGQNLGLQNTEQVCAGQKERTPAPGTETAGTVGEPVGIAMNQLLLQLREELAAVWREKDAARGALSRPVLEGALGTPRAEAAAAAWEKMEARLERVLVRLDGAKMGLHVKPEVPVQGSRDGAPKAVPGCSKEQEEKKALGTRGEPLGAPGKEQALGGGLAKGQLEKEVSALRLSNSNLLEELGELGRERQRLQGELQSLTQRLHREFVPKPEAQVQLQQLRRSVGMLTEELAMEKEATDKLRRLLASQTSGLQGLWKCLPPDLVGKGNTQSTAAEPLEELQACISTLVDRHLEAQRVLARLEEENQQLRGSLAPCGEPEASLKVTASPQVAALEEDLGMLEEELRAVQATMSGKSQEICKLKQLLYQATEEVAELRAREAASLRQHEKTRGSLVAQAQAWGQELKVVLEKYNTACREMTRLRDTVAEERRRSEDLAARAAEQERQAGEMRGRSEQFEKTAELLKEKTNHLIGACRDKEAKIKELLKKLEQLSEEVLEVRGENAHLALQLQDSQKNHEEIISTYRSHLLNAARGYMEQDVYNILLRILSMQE
Experimental: (§1) MLO-Y4 cells were seeded on 30×150 mm type-I collagen coated dishes as described in cell culture experiment. At 60% cell density, medium was switched to FreeStyle™ 293 Expression medium. After 4 hours incubation, the cells were chilled on ice for 10 minutes, followed by treatment of 10 nM his-tag irisin or his-tag adipsin for 20 minutes. The cells were then incubated with 1.5 mM DTSSP for 30 minutes on ice to do cross-linking, after washing with 15 ml cold PBS twice. The cross-linking was quenched by addition of a final concentration of 20 mM Tris-pH 7.5. The cells were then harvested and homogenized in 1 ml RIPA buffer containing proteaseinhibitor cocktailand phosphatase-inhibitor cocktail. Whole-cell lysates were homogenized by 10 times passages through a 22G needle fitted to a 3 ml syringe. Homogenized samples were rotated gently in cold room for 20 minutes followed by 15,000×g centrifugation for 10 minutes. After addition of a final concentration of 10 mM imidazole, supernatants were incubated with 100 μl Ni-NTA agarose for 1 hour. After centrifugation at 500×g for 1 minute, the supernatants were aspirated and 1 ml cold RIPA buffer containing 10 mM imidazole were added to the agarose. After 10 minutes rotation in cold room, the supernatants were aspirated and 1 ml cold RIPA buffer containing 30 mM imidazole were added to the agarose. After repeating the washing 3 times, 0.8 ml RIPA buffer containing 250 mM imidazole was added and the agarose was gently rotated in a cold room for 20 minutes. After centrifugation at 1000×g for 2 minutes, the supernatants were transferred to 1.5 ml tube and incubated with 100 μl 0.2% sodium deoxycholate and 100 μl 10% trichloroacetic acid in ice for 1 hour. After centrifugation at 12,000×g for 10 minutes at 4° C., the supernatants were removed and 1 ml cold acetone was added to the pellets followed by vortexing for 10 seconds. After one more washing with cold acetone, the pellets were dried at 37° C., and 39 μl PBS and 13 μl 4×NuPAGE LDS were added to the pellets with a final concentration of 5 mM DTT. Solubilized proteins were incubated at 65° C. for 20 minutes followed by incubation with a final concentration of 14 mM iodoacetamide for 45 minutes in the dark. 38 μl samples were loaded to 4-12% gradient SDS-PAGE for separation followed by Coomassie Blue staining. The gels were submitted to quantitative proteomics.
(§2) For in-gel digestions, gels were stained with Coomassie Blue and were excised into 8 equal segments for control and irisin lanes. Gel pieces were destained and dehydrated with 100% acetonitrile, vacuumed dried, and digested in 25 mM HEPES (pH 8.5) with 500 ng sequencing grade trypsin (Promega) and incubated for an overnight at 37° C. (Shevchenko et al. (1996) Anal. Chem. 68:850-858). Digests were treated with 1% formic acid and purified using C18 Stage-Tips as previously described (Rappsilber et al. (2007) Nat. Protoc. 2:1896-1906). Peptides were eluted with 70% acetonitrile and 1% formic acid, then dried using a speedvac. Isobaric labeling of digested peptides was accomplished using 6-plex tandem mass tag (TMT) reagents (Thermo Fisher Scientific, Rockford, Ill.). Reagents, 5.0 mg, were dissolved in 252 μl acetonitrile (ACN) and 5 μl of the solution was added to the digested peptides dissolved in 25 μl of 200 mM HEPES, pH 8.5. After 1 hour at room temperature, the reaction was quenched by adding 1 μl of 5% hydroxylamine. Labeled peptides were combined and acidified prior to C18 Stage-Tips desalting.
(§3) All LC-MS/MS experiments were performed on an Orbitrap Fusion™ Lumos mass spectrometer (Thermo Fisher Scientific, San Jose, Calif., USA) coupled with a Proxeon EASY-nLC™ 1200 LC pump (Thermo Fisher Scientific). Peptides were separated on a 100 μm inner diameter microcapillary column packed with 35 cm of Accucore™ C18 resin (1.8 μm, 100 Å, Thermo Fisher Scientific). […]

[2] = target: T2, MLO-Y4 cell surface proteins (Mus musculus, UniProt Q9CXD6); assay: as above; type: binding; settings: co-precipitated protein Mcur1 (MCUR1_MOUSE)
T2 construct: endogenous in cells; host or cells: MLO-Y4
T2 sequence (Q9CXD6 1-340): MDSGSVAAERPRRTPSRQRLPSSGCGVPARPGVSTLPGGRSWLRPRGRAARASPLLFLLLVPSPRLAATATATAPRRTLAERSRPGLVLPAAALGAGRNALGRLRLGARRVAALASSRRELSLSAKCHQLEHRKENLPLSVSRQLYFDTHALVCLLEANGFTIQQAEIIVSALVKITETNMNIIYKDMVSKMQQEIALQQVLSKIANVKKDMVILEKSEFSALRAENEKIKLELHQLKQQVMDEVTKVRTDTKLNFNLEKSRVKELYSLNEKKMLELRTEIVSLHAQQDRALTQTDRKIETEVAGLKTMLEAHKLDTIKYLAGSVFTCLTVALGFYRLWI
Experimental: as §1, §2, §3

B1: irisin: secreted cleaved form of FNDC5; recombinant human/mouse irisin with C-terminal his tag produced in HEK293 cells (protein)
chain: DSPSAPVNVTVRHLKANSAVVSWDVLEDEVVIGFAISQQKKDVRMLRFIQEVNTTTRSCALWDLEEDTEYIVHVQAISIQGQSPASEPVLFKTPREAEKMASKNKDEVTMKE
modifications: left off: small tags and cut ends
notes: secreted cleaved form of FNDC5; recombinant human/mouse irisin with C-terminal his tag produced in HEK293 cells
TMT signal-to-noise ratio [1]: 3.32 | irisin/adipsin TMT signal-to-noise ratio [1]: 0.011 | TMT signal-to-noise ratio [2]: 951.207 | irisin/adipsin TMT signal-to-noise ratio [2]: 0.583
